Test results reported in patent US20230203190A1.
Values joined by “and” are separate entries in the source; they are usually repeats but may differ in a detail not shown here. Equal values may be shown once. Each block holds one molecule with its values, some of them ahead of it.

How the values were obtained:
[1] = biological target: human colorectal and pancreatic carcinoma-associated antigens (CPAA) (human); test: flow cytometry, OVCAR-3 ovarian tumor cells, control antibody
[2] = biological target: human colorectal and pancreatic carcinoma-associated antigens (CPAA) (human); test: flow cytometry, GEO colorectal tumor cells, control antibody
[3] = biological target: human colorectal and pancreatic carcinoma-associated antigens (CPAA) (human); test: flow cytometry, LS174T colorectal tumor cells, control antibody
[4] = biological target: human colorectal and pancreatic carcinoma-associated antigens (CPAA) (human); test: flow cytometry, MCF-7 breast tumor cells, control antibody
[5] = biological target: human colorectal and pancreatic carcinoma-associated antigens (CPAA) (human); test: flow cytometry, CFPAC-1 pancreatic tumor cells, control antibody
[6] = biological target: human colorectal and pancreatic carcinoma-associated antigens (CPAA) (human); test: flow cytometry, Colo-205 colorectal tumor cells, 2 ug NPC-1C per 100,000 cells
[7] = biological target: human colorectal and pancreatic carcinoma-associated antigens (CPAA) (human); test: flow cytometry, H520 squamous tumor cells (type reported as not bound), 2 ug NPC-1C per 100,000 cells
[8] = biological target: human colorectal and pancreatic carcinoma-associated antigens (CPAA) (human); test: flow cytometry, DU145 prostate tumor cells (type reported as not bound), 2 ug NPC-1C per 100,000 cells
[9] = biological target: human colorectal and pancreatic carcinoma-associated antigens (CPAA) (human); test: flow cytometry, SW1463 colorectal tumor cells, 2 ug NPC-1C per 100,000 cells
[10] = biological target: human colorectal and pancreatic carcinoma-associated antigens (CPAA) (human); test: flow cytometry, SW620 colorectal tumor cells, 2 ug NPC-1C per 100,000 cells
[11] = biological target: human colorectal and pancreatic carcinoma-associated antigens (CPAA) (human); test: flow cytometry, HT-29 colorectal tumor cells, 2 ug NPC-1C per 100,000 cells
[12] = biological target: human colorectal and pancreatic carcinoma-associated antigens (CPAA) (human); test: flow cytometry, Panc-1 pancreatic tumor cells, 2 ug NPC-1C per 100,000 cells
[13] = biological target: human colorectal and pancreatic carcinoma-associated antigens (CPAA) (human); test: flow cytometry, H226 squamous tumor cells (type reported as not bound), 2 ug NPC-1C per 100,000 cells
[14] = biological target: human colorectal and pancreatic carcinoma-associated antigens (CPAA) (human); test: flow cytometry, SW480 colorectal tumor cells, 2 ug NPC-1C per 100,000 cells
[15] = biological target: human colorectal and pancreatic carcinoma-associated antigens (CPAA) (human); test: flow cytometry, LS174T colorectal tumor cells, 2 ug NPC-1C per 100,000 cells
[16] = biological target: human colorectal and pancreatic carcinoma-associated antigens (CPAA) (human); test: flow cytometry, PC-3 prostate tumor cells (type reported as not bound), 2 ug NPC-1C per 100,000 cells
[17] = biological target: human colorectal and pancreatic carcinoma-associated antigens (CPAA) (human); test: flow cytometry, SW756 squamous tumor cells (type reported as not bound), 2 ug NPC-1C per 100,000 cells
[18] = biological target: human colorectal and pancreatic carcinoma-associated antigens (CPAA) (human); test: flow cytometry, CFPAC-1 pancreatic tumor cells, 2 ug NPC-1C per 100,000 cells
[19] = biological target: human colorectal and pancreatic carcinoma-associated antigens (CPAA) (human); test: flow cytometry, HTB-35 squamous tumor cells (type reported as not bound), 2 ug NPC-1C per 100,000 cells
[20] = biological target: human colorectal and pancreatic carcinoma-associated antigens (CPAA) (human); test: flow cytometry, SW1116 colorectal tumor cells, 2 ug NPC-1C per 100,000 cells
[21] = biological target: human colorectal and pancreatic carcinoma-associated antigens (CPAA) (human); test: flow cytometry, AsPC-1 pancreatic tumor cells, 2 ug NPC-1C per 100,000 cells
[22] = biological target: human colorectal and pancreatic carcinoma-associated antigens (CPAA) (human); test: flow cytometry, OVCAR-3 ovarian tumor cells (line reported as not bound), 2.5 ug NPC-1 per 100,000 cells
[23] = biological target: human colorectal and pancreatic carcinoma-associated antigens (CPAA) (human); test: flow cytometry, CFPAC-1 pancreatic tumor cells, 2.5 ug NPC-1 per 100,000 cells
[24] = biological target: human colorectal and pancreatic carcinoma-associated antigens (CPAA) (human); test: flow cytometry, MCF-7 breast tumor cells (line reported as not bound), 2.5 ug NPC-1 per 100,000 cells
[25] = biological target: human colorectal and pancreatic carcinoma-associated antigens (CPAA) (human); test: flow cytometry, GEO colorectal tumor cells, 2.5 ug NPC-1 per 100,000 cells
[26] = biological target: human colorectal and pancreatic carcinoma-associated antigens (CPAA) (human); test: flow cytometry, LS174T colorectal tumor cells, 2.5 ug NPC-1 per 100,000 cells

% Cell Staining [1]: 0.19%
% Cell Staining [2]: 0.78%
% Cell Staining [3]: 0.93%
% Cell Staining [4]: 0.94%
% Cell Staining [5]: 0.44%
Molecule: Isotype Control (antibody)

% Cell Staining [6]: 2.26% and 1.44%
mfi (mean fluorescence intensity) [6]: 154 and 67
% Cell Staining [7]: 1.66% and 0.93%
mfi (mean fluorescence intensity) [7]: 129 and 173
% Cell Staining [8]: 0.24% and 0.14%
% Cell Staining [9]: 3.72% and 4.29%
mfi (mean fluorescence intensity) [9]: 410 and 399
% Cell Staining [10]: 0.24% and 0.85%
mfi (mean fluorescence intensity) [10]: 184 and 74
% Cell Staining [11]: 1.3% and 1.09%
mfi (mean fluorescence intensity) [11]: 55 and 34
% Cell Staining [12]: 0.75% and 0.41%
mfi (mean fluorescence intensity) [12]: 69 and 31
% Cell Staining [13]: 0.49% and 0.4%
mfi (mean fluorescence intensity) [13]: 32
% Cell Staining [14]: 1.41% and 1.34%
mfi (mean fluorescence intensity) [14]: 44 and 64
% Cell Staining [15]: 11.6% and 11.2%
mfi (mean fluorescence intensity) [15]: 43 and 47
% Cell Staining [16]: 1.34% and 1.52%
mfi (mean fluorescence intensity) [16]: 17 and 28
% Cell Staining [17]: 0.75% and 2.14%
mfi (mean fluorescence intensity) [17]: 186 and 178
% Cell Staining [18]: 11.2% and 10.6%
mfi (mean fluorescence intensity) [18]: 16 and 15
% Cell Staining [19]: 4.83% and 3.85%
mfi (mean fluorescence intensity) [19]: 97 and 123
% Cell Staining [20]: 1.12% and 2.37%
mfi (mean fluorescence intensity) [20]: 97 and 174
% Cell Staining [21]: 0.43% and 0.35%
mfi (mean fluorescence intensity) [21]: 33 and 34
B1: NPC-1C chimeric antibody (antibody, mouse IgG1, kappa, V domains shown)
VH: QVQLKESGPDLVAPSQSLSITCIVSGFSLSKFGVNWVRQPPGKGLEWLGVIWGDGSTSYNSGLISRLSIKENSKSQVFLKLNSLQADDTATYYCVKPGGDYWGHGTSVTVSS
VL: QVVLTQSPVIMSASPGEKVTMTCSASSSISYMYWYQQKPGTSPRWIYDTSKLASGVPARFSGGSGTSYSLTISNMEAGDAAYYCHQRDSYPWTFGGGTNLIKRA

% Cell Staining [22]: 0.19%
% Cell Staining [23]: 54.6%
% Cell Staining [24]: 0.19%
% Cell Staining [25]: 86.9%
% Cell Staining [26]: 57%
B2: NPC-1 monoclonal antibody (antibody, mouse IgG1, kappa, V domains shown)
VH: B1 VH
VL: B1 VL
